Molecular target: T1, S. pombe 14xHis-Spt6(282-1159) (S. pombe, UniProt Q09915 282-1159)
T1 construct: transcription elongation factor Spt6, S. pombe, truncated version corresponding to residues 282-1159; Held on Ni-NTA resin by the 14xHis tag in the pulldowns; also called PZH_670; source: E. coli BL21(DE3), purified (Ni Sepharose, dialysis)
T1 sequence (looked up): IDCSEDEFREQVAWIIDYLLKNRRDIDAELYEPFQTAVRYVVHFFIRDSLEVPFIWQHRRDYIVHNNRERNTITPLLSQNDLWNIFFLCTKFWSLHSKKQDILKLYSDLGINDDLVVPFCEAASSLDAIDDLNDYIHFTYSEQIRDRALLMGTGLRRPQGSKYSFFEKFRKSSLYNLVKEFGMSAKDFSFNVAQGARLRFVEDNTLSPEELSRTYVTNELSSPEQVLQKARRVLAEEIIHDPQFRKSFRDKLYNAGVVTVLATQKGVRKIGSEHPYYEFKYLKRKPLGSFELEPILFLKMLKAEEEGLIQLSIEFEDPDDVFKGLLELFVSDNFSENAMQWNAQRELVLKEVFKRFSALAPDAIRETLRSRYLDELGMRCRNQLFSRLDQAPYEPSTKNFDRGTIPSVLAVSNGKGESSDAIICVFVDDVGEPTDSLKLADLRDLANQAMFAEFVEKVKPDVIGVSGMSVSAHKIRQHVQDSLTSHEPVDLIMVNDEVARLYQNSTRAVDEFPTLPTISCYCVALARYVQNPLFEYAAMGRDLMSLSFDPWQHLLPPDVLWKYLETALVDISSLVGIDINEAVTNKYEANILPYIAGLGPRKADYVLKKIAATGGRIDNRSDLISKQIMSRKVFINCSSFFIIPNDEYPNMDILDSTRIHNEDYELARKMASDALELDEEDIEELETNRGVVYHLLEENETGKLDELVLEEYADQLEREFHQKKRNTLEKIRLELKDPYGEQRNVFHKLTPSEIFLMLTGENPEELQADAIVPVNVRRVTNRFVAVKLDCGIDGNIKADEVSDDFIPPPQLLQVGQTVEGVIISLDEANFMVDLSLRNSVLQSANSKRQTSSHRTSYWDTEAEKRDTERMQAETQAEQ
Assay: pull-down; 14xHis-Spt6(282-1159) bound to Ni-NTA resin as bait, recombinant histone fusion as prey; 50 mM Tris pH 8, 150 mM NaCl, 2.5 mM DTT, 0.1% tween-20, RT; washing under physiological salt (150 mM NaCl) or stringent (300 mM NaCl) conditions; colloidal Coomassie staining
Details: both partners purified

binding result: binds
B1: S. pombe Pht1 (H2A.Z), full-length N-terminal GST fusion (natural protein)
chain: not shown
notes: histone H2A.Z (Pht1), S. pombe, full length; also called full-length Pht1
